In the supplement of paper PMC10567573:
± gives the standard deviation.

Assay: protein stability index of a GFP-peptide fusion (GPS, HEK-293T) (PSI 1-6); higher = more stable
[1] = treatment: DMSO, c terminus: a fixed tail appended
[2] = treatment: MLN4924 1 uM, 8 h, c terminus: a fixed tail appended
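Note: 24-mer peptide tiles fused after GFP, lentivirally expressed, FACS-sorted into six equal bins by GFP/DsRed ratio, decoded by Illumina sequencing, PSI is the read-weighted mean bin number.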

Sequence	protein stability index [1]	protein stability index [2]	protein stability index (treatment: DMSO, c terminus: native)	protein stability index (treatment: MLN4924 1 uM, 8 h, c terminus: native)
DKHGCPAYVSPEILNTTGTYSGKA [TRIB1]	4.44 ± 0.26	4.52 ± 0.12		
DKNRCELLSFLLLMDYIGINLATM [EDNRA]	2.77 ± 0.49	2.92 ± 0.32		
DKSDQSLPNASADSLGGSQEMVQR [TRAF3IP2]	5.36 ± 0.17	5.33 ± 0.34		
DLDDFAGFSCNQGRYPLIQTLRQE [CHIT1]	3.44 ± 0.2	3.48 ± 0.082		
DLMGVLTKGVREVERALQLPREPG [FEM1A]	2.82 ± 0.17	2.69 ± 0.37		
DLPSSTPVANSGTKPKTTAIQGIS [DLC1]	4.75 ± 0.2	4.93 ± 0.065		
DLRLRLDHLGWVARGTGSGEDSST [RTN2]	3.53 ± 0.43	4.15 ± 0.37		
DLSDLLQVDSLRPASFPTWGCDLG [BRF1]	2.53 ± 0.28	2.73 ± 0.31		
DMKAMSPENQEYFEKHRWPPVWYL [RHOBTB2]	2.47 ± 0.17	2.67 ± 0.36		
DMNGKSLHGKAIKVEQAKKPSFQS [RBMY1A1]	3.16 ± 0.2	3.61 ± 0.2		
DNHMSDKDESCYDNAEAAFSDDEE [INTS3]	5.55 ± 0.18	5.29 ± 0.38		
DNLKFSQEYESIDPGQQFTWEHSN [PTPRD]	4.57 ± 0.44	4.57 ± 0.11		
DPNTAAGWLSVSDDLTSVTNHGYR [TRIM35]	4.32 ± 0.15	4.31 ± 0.13		
DQKERCIIVRTTNKKYYKKFSIPD [DPCD]	2.95 ± 0.21	3.06 ± 0.27		
DQLLLATGLNNGRIKIWDVYTGKL [WSB1]	2.17 ± 0.29	2.17 ± 0.31		
DRETQEGKPPTAHLDRTSVSSLSE [ELOA2]	5.37 ± 0.34	5.42 ± 0.21		
DRPRCCLRGKECCINRFQQVESRW [BTBD1]	2.89 ± 0.32	3.06 ± 0.38		
DSAKREVKQKISPYFKSNDVVCKN [FAN1]	3.95 ± 0.35	4 ± 0.31		

Sequence	protein stability index [1]	protein stability index [2]	protein stability index (treatment: DMSO, c terminus: native)	protein stability index (treatment: MLN4924 1 uM, 8 h, c terminus: native)
DSAQMQNGGPSTPPASPPADGSPP [ANKRD40]	5.24 ± 0.49	5.23 ± 0.19		
DSEEPVSTHQEAENEKDRADQTVL [CHGB]	5.29 ± 0.56	5.65 ± 0.27		
DSLWHRSDSAPRNKISRFQAPISA [MFF]	3.43 ± 0.45	3.41 ± 0.19		
DSTKTAFHRSQTLSYRNGYAIVRR [EFHC1]	3.31 ± 0.12	3.48 ± 0.32		
DSTNVEEAFKNILTEIYRIVSQKQ [RAB11B]	2.29 ± 0.2	2.49 ± 0.25		
DVNSFVTECEPSELFQLQTYSLPP [CDS1]	3.58 ± 0.29	3.54 ± 0.35		
EAAGVQIQMVNESLGYVRSQFLKL [CD207]	2.334 ± 0.019	2.3 ± 0.44		
EAAYLKILESSQTLLSVLKREAGN [SSNA1]	2.39 ± 0.13	2 ± 0.26		
EACLVAQCDALIDALNRRKAQLLA [TRIM9]	2.46 ± 0.29	2.65 ± 0.44		
EATTSDPQDLDMKKHRCKCCSIM [PALM]			4.3 ± 0.24	4.58 ± 0.23
ECKHPSVFQHGDNSFRLLFDVVVI [MCOLN1]	2.9 ± 0.48	3.02 ± 0.71		
ECQYYIDKLEYLDEKQRDPRIEAS [NET1]	4.12 ± 0.13	4.04 ± 0.19		
EDAYKIRIRIDDEPANLDILDTAG [RIT1]	3.38 ± 0.28	3.47 ± 0.65		
EDDPSVLYVSLHRYDHGTFFPMGD [HDAC6]	2.29 ± 0.31	2.37 ± 0.3		
EDNLSLVCLPRSEDDDCDDDDDDD [DRICH1]	5.48 ± 0.42	5.51 ± 0.075		
EEAWVKIENLAKANPQYTVYSQAS [PPP2R5C]	3.29 ± 0.16	3.48 ± 0.18		
EEEDDDDIHITARIESDLTLESLS [DRICH1]	5.16 ± 0.12	5.16 ± 0.083		
EEEDLRRRLKYFFMSPCDKFRAKG [MCOLN1]	2.65 ± 0.41	3.15 ± 0.5		
